Like-named read-outs stand apart in the source and are kept apart here.
Key:
Test in all cases: BLI
[1] = target: T1, Recombinant His-tagged Pfs25 (Plasmodium falciparum, UniProt P13829 17-196)
[2] = target: T1, Recombinant His-tagged Pfs25; remark: listed apart in the source
[3] = target: T1, Recombinant His-tagged Pfs25; remark: listed apart in the source

B1: 2544 Fab (Fab, V domains shown)
VH: EVQLVESGGGLVQPGGSLRLSCVASGFTFSNYNMNWVRQAPGKGLEWLSYISSSSGTIYYADSVKGRFTISRDNAKNSMYLQMNSLRAEDTAVYYCVRVEYYYGSSGYYYDFDSWGQGTLVTVSS
VL: DIVMTQSPLSLPVTPGEPASISCRSSQSLLHNGYNYLDWYLQKPGQSPQLLIYLGSNRASGVPDRFSGSGSGTDFTLKISRVEAEDVGVYYCMQTLQPFTFGQGTRLEIK
Question: How did the koff [1] turn out when B1 was run?
Answer: The koff was 0.00075 s⁻¹.

B2: 2587 Fab (Fab, V domains shown)
VH: QVQLVQSGAEVRKPGASVKVSCKASGYSFTSYILNWVRQATGQGLEWMGWMNPDSNNTEYAQKFQGRVTITRDTSISTVYMELSGLRSEDTAVYYCARHSFKSNTGFDYWGQGTQVTVSS
VL: SYELSQPPSVSVSAGQTASITCSGDKLGGKYGYWYQQRPGQSPILVIYQDSKRPSGIPERFSGSNSGNTATLTISGTQAMDEADYYCQAWDISTNWVFGGGTKLTVL
Question: Which Kd [2] does the source give for B2 here?
Answer: Its Kd is 4.6 nM.

Question: What about the koff [1] of the same binder?
Answer: The koff was 0.0007 s⁻¹.

B3: 2530 Fab (Fab, V domains shown)
VH: QVQLQESGPGLVKPSETLSLTCTVSGDSMSSYYWSWIRQPAGKGLEWIGRISTSGSTNYNPSLKSRVTMSVDTSNNHFSMRLNSVTAADTAVYYCACSGSYSFFDYWGQGTLVTVSS
VL: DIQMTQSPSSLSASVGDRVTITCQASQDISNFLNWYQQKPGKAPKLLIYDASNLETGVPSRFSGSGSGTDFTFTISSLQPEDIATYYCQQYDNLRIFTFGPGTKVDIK
Question: Which results are given for B3?
Answer: Kd [3]: 19.2 nM; koff [1]: 0.0062 s⁻¹

B4: 2586 Fab (Fab, V domains shown)
VH: EVHLVESGGGLVQPGGSLRLSCAASGFTFSDHYMDWVRQAPGKGLEWVGRIRNKANSYTTDYAASVKGRFTILRDDSKNSLYLQMNSLKTEDAAVYYCVRVGGLGERGDYYYYYMDVWGKGTTVTVSS
VL: SYELTQPPSVSFSPGQTARITCSGDALSKQYTYWYQQKPGQAPVLVIYKDSERPSGIPERFSGSSSGTTVTLTISGVQAEDEADYYCQSADSSGPYQVLFGGGTKLTVL
Question: B4 was tested. Which Kd [3] did it give?
Answer: Its Kd is 2.5 nM.

Question: And the koff [1]?
Answer: Its koff is 0.00037 s⁻¹.

Reference: PMC6760140 (2019)
